Side chains are listed from the residue outwards. maleimide = maleimide group on PEG that conjugates to a cysteine thiol
T1: IL-2Rαβγ triple receptor (UniProt P01589 22-272; P14784 27-551; P31785 23-369)
T1 sequence (looked up) 1: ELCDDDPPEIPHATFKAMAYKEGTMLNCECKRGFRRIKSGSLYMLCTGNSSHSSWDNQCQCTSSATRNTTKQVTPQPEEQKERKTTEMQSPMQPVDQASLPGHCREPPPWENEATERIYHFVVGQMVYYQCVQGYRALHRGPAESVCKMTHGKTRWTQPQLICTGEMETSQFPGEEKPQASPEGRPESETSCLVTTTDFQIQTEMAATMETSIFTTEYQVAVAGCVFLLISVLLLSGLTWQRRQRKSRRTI
T1 sequence (looked up) 2: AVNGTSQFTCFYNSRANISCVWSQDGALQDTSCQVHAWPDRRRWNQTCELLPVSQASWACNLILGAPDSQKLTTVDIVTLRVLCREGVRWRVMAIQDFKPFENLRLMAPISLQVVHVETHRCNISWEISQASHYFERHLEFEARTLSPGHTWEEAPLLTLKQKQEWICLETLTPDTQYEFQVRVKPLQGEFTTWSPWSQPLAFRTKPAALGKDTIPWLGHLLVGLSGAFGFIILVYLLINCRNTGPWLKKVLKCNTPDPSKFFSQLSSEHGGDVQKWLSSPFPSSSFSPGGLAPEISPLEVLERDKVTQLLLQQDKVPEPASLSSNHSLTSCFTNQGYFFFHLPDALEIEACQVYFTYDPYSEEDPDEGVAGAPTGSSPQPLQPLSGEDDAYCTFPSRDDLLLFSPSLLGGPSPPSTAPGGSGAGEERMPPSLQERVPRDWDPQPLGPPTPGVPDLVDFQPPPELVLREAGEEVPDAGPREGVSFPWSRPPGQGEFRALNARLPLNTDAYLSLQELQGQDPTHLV
T1 sequence (looked up) 3: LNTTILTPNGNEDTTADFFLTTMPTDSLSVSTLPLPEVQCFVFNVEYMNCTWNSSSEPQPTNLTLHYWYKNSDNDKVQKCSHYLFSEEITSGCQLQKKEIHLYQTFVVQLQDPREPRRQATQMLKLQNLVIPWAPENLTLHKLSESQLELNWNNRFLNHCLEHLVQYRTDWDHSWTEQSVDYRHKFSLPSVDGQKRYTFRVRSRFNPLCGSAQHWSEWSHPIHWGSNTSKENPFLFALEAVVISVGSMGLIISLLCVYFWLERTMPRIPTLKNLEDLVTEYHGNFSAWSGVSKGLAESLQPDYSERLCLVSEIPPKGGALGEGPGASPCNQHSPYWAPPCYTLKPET


How the values were obtained:
IL-2Rαβγ triple receptor [1] = target: T1, IL-2Rαβγ triple receptor; assay: cell-based or functional assay
IL-2Rαβγ triple receptor [2] = target: T1, IL-2Rαβγ triple receptor; assay: cell-based or functional assay; remark: listed apart in the source

Binder | EC50 for activation of the IL-2αβγ triple receptor (STAT5 luciferase reporter gene assay, 293EC18/αβγ/JAK3/STAT5 cells) (IL-2Rαβγ triple receptor [1]) | EC50 for activation of the IL-2αβγ triple receptor (STAT5 luciferase reporter gene assay) (IL-2Rαβγ triple receptor [2])
80k-1PEG-IL2-N88R-S75C (ligand) APTSSSTKKTQLQLEHLLLDLQMILNGINNYKNPKLTRMLTFKFYMPKKATELKHLQCLEEELKPLEEVLNLAQC(PEG 80 kDa)KNFHLRPRDLISRINVIVLELKGSETTFMCEYADETATIVEFLNRWITFSQSIISTLT | 1.26 nM | 
80k-1PEG-IL2-N88R-N33C (ligand) APTSSSTKKTQLQLEHLLLDLQMILNGINNYKC(PEG 80 kDa)PKLTRMLTFKFYMPKKATELKHLQCLEEELKPLEEVLNLAQSKNFHLRPRDLISRINVIVLELKGSETTFMCEYADETATIVEFLNRWITFSQSIISTLT | 0.00386 nM | 
20K-1PEG-IL2-N88R-N77C (ligand, not fully specified) APTSSSTKKTQLQLEHLLLDLQMILNGINNYKNPKLTRMLTFKFYMPKKATELKHLQCLEEELKPLEEVLNLAQSKC([maleimide-PEG 20 kDa])FHLRPRDLISRINVIVLELKGSETTFMCEYADETATIVEFLNRWITFSQSIISTLT |  | 0.0705 nM
20K-1PEG-IL2-N88R-D109C (ligand, not fully specified; one 20 kD PEG-maleimide conjugated to Cys 109) APTSSSTKKTQLQLEHLLLDLQMILNGINNYKNPKLTRMLTFKFYMPKKATELKHLQCLEEELKPLEEVLNLAQSKNFHLRPRDLISXINVIVLELKGSETTFMCEYAXETATIVEFLNRWITFSQSIISTLT |  | 0.0786 nM
80K-1PEG-IL2-N88R-D109C (ligand, one 80 kD PEG-maleimide conjugated to Cys 109) APTSSSTKKTQLQLEHLLLDLQMILNGINNYKNPKLTRMLTFKFYMPKKATELKHLQCLEEELKPLEEVLNLAQSKNFHLRPRDLISXINVIVLELKGSETTFMCEYAXETATIVEFLNRWITFSQSIISTLT |  | 0.407 nM
80K-1PEG-IL2-N88R-N77C (ligand) APTSSSTKKTQLQLEHLLLDLQMILNGINNYKNPKLTRMLTFKFYMPKKATELKHLQCLEEELKPLEEVLNLAQSKC(PEG 80 kDa)FHLRPRDLISRINVIVLELKGSETTFMCEYADETATIVEFLNRWITFSQSIISTLT | 0.184 nM | 0.246 nM
